# Source: US20150175710A1 (DEVELOPMENT CENTER FOR BIOTECHNOLOGY, published 2015)
# B1: anti-human ENO1 antibody EN10 mAb (antibody, V domains shown)
# VH: EVQLQQSGPELVKPGASVKMSCKASGYTFTSCVMNWVKQKPGQGLEWIGYINPYNDGTKYNEKFKGKATLTSDKSSSTAYMELSSLTSEDSAVYYCAREGFYYGNFDNWGQGTTLTVSS
# VL: DIQMTQSPASLSASVGETVTITCRASENIYSYLTWYQQKQGKSPQLLVYNAKTLPEGVPSRFSGSGSGTQFSLKINSLQPEDFGSYYCQHHYGTPYTFGGGTKLEITR
# Tests used:
# [1] = biological target: T1, human ENO1 protein (wild type) (human, UniProt P06733 1-434); experiment: ELISA, ENO1 coated, EN10 mAb 2-fold serial dilution, four parameter logistic fit
# T1 construct: Coated on ELISA plates; also called alpha-Enolase; enolase-1; not shown: source of the protein in Exampl
# T1 sequence (P06733 whole entry): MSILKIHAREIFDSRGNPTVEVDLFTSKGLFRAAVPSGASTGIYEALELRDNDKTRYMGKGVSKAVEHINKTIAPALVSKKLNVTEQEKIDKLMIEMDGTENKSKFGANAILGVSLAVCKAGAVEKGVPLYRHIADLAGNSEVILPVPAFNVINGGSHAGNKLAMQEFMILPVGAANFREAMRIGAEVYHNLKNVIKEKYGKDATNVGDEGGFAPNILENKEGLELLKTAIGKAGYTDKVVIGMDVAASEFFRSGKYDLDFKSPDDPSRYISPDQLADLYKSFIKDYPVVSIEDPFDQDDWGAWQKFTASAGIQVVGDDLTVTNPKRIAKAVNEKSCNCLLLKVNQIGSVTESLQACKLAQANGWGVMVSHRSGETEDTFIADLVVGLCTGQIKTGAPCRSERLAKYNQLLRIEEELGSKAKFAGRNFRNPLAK
# [2] = biological target: T1, human ENO1 protein (wild type); experiment: ELISA, 400 ng human ENO1 coated, antibody serial dilution, four parameter logistic fit
# [3] = biological target: T2, human ENO1 mutant D300 to alanine (human, UniProt P06733 1-434); experiment: ELISA, mutant ENO1 coated, EN10 mAb 2-fold serial dilution, four parameter logistic fit
# T2 construct: Expressed in E. coli; also called A300; not shown: His tag (Ni-agarose purified)
# T2 sequence (P06733 other isoform, or with tags, fused parts or gaps mutant limits assumed): as the sequence (P06733 whole entry) above, with D300A counted along it
# [4] = biological target: T3, human ENO1 mutant G302 to alanine (human, UniProt P06733 1-434); experiment: as above
# T3 construct: Expressed in E. coli; also called A302; not shown: His tag (Ni-agarose purified)
# T3 sequence (P06733 other isoform, or with tags, fused parts or gaps mutant limits assumed): as the sequence (P06733 whole entry) above, with G302A counted along it
# [5] = biological target: T4, human ENO1 mutant Q305 to alanine (human, UniProt P06733 1-434); experiment: as above
# T4 construct: Expressed in E. coli; also called A305; not shown: His tag (Ni-agarose purified)
# T4 sequence (P06733 other isoform, or with tags, fused parts or gaps mutant limits assumed): as the sequence (P06733 whole entry) above, with Q305A counted along it
# [6] = biological target: T5, human ENO1 mutant K306 to alanine (human, UniProt P06733 1-434); experiment: as above
# T5 construct: Expressed in E. coli; also called A306; not shown: His tag (Ni-agarose purified)
# T5 sequence (P06733 other isoform, or with tags, fused parts or gaps mutant limits assumed): as the sequence (P06733 whole entry) above, with K306A counted along it
# [7] = biological target: T6, human ENO1 mutant A309 to glycine (human, UniProt P06733 1-434); experiment: as above
# T6 construct: Expressed in E. coli; not shown: His tag (Ni-agarose purified)
# T6 sequence (P06733 other isoform, or with tags, fused parts or gaps mutant limits assumed): as the sequence (P06733 whole entry) above, with A309G counted along it
# [8] = biological target: T7, human ENO1 mutant K326 to alanine (human, UniProt P06733 1-434); experiment: as above
# T7 construct: Expressed in E. coli; also called A326; not shown: His tag (Ni-agarose purified)
# T7 sequence (P06733 other isoform, or with tags, fused parts or gaps mutant limits assumed): as the sequence (P06733 whole entry) above, with K326A counted along it
# [9] = biological target: T8, human ENO1 mutant N333 to alanine (human, UniProt P06733 1-434); experiment: as above
# T8 construct: Expressed in E. coli; also called A333; not shown: His tag (Ni-agarose purified)
# T8 sequence (P06733 other isoform, or with tags, fused parts or gaps mutant limits assumed): as the sequence (P06733 whole entry) above, with N333A counted along it
# [10] = biological target: T9, human ENO1 mutant E334 to alanine (human, UniProt P06733 1-434); experiment: as above
# T9 construct: Expressed in E. coli; also called A334; not shown: His tag (Ni-agarose purified)
# T9 sequence (P06733 other isoform, or with tags, fused parts or gaps mutant limits assumed): as the sequence (P06733 whole entry) above, with E334A counted along it
# [11] = biological target: T10, human ENO1 mutant K335 to alanine (human, UniProt P06733 1-434); experiment: as above
# T10 construct: Expressed in E. coli; also called A335; not shown: His tag (Ni-agarose purified)
# T10 sequence (P06733 other isoform, or with tags, fused parts or gaps mutant limits assumed): as the sequence (P06733 whole entry) above, with K335A counted along it
binder,measurement,setting,value
B1,Kd,[1],0.443 nM
same,Kd,[2],0.203 nM
same,Kd,[3],63.3 nM
same,Kd,[4],0.345 nM
same,Kd,[5],0.331 nM
same,Kd,[6],0.465 nM
same,Kd,[7],5.63 nM
same,Kd,[8],0.787 nM
same,Kd,[9],0.413 nM
same,Kd,[10],107 nM
same,Kd,[11],9.57 nM
